The source of these data is patent US20250236651A1.

The target of experiment [1] is SPIDICOL1 (Spidroin-I/Collagen Type-I fusion protein) (Nephila clavipes; human).
Experiment [2] deals with FIB3COL1 (Fibroin-III/Collagen Type-I fusion protein) (Araneus diadematus; human).
Experiment [3] concerns the target native Bovine Collagen Type I (Thermo Fisher) (bovine) (UniProt P02453).
Experiment [4] addresses SPIDICOL1 (Spidroin-I/Collagen Type-I fusion protein) (Nephila clavipes; human). This is another data set of the same source.
Experiment [5] addresses FIB3COL1 (Fibroin-III/Collagen Type-I fusion protein) (Araneus diadematus; human). The source holds these as a separate data set.

In the case of collagenase (enzyme), the degradation of the electrospun scaffold (mass over time) in experiment [1] is 96 h; in experiment [2], 100 h; in experiment [3], 64 h.

B1: Lysin Hydroxylase 3 (LH3), exogenous human (enzyme)
chain: SDRPRGRDPVNPEKLLVITVATAETEGYLRFLRSAEFFNYTVRTLGLGEEWRGGDVARTVGGGQKVRWLKKEMEKYADREDMIIMFVDSYDVILAGSPTELLKKFVQSGSRLLFSAESFCWPEWGLAEQYPEVGTGKRFLNSGGFIGFATTIHQIVRQWKYKDDDDDQLFYTRLYLDPGLREKLSLNLDHKSRIFQNLNGALDEVVLKFDRNRVRIRNVAYDTLPIVVHGNGPTKLQLNYTYPEHERELGNYVPNGWTPEGGCGFCNQDRRTLPGGQPPPRVFLAVFVEQPTPFLPRFLQRLLLLDYPPDRVTLFLHNNEVFHEPHIADSWPQLQDHFSAVKLVGPEEALSPGEARDMAMDLCRQDPECEFYFSLDADAVLTNLQTLRILIEENRKVIAPMLSRHGKLWSNFWGALSPDEYYARSEDYVELVQRKRVGVWNVPYISQAYVIRGDTLRMELPQRDVFSGSDTDPDMAFCKSFRDKGIFLHLSNQHEFGRLLATSRYDTEHLHPDLWQIFDNPVDWKEQYIHENYSRALEGEGIVEQPCPDVYWFPLLSEQMCDELVAEMEHYGQWSGGRHEDSRLAGGYENVPTVDIHMKQVGYEDQWLQLLRTYVGPMTESLFPGYHTKARAVMNFVVRYRPDEQPSLRPHHDSSTFTLNVALNHKGLDYEGGGCRFLRYDCVISSPRKGWALLHPGRLTHYHEGLPTTWGTRYIMVSFVDP
As for B1, the hydroxylysine content (amino acid analysis) in experiment [4] was 36 fold; in experiment [5] it was 39 fold.
